Patent US20100260765A1

Experiments:
[1] = target: whole KDR-ECD (Cat. # 676490, Calbiochem) (human) (UniProt P35968); assay: ELISA, KDR-ECD coat 5 ug/mL, antibody 0.1 ug/mL
[2] = target: whole KDR-ECD (Cat. # 676490, Calbiochem) (human) (UniProt P35968); assay: ELISA, KDR-ECD coat 5 ug/mL, antibody 1 ug/mL
[3] = target: soluble KDR Ig4-7 domain (human) (UniProt P35968); assay: ELISA, KDR Ig4-7 coat (1:1 diln.), antibody 0.01 ug/mL
[4] = target: whole KDR-ECD (Cat. # 676490, Calbiochem) (human) (UniProt P35968); assay: ELISA, KDR-ECD coat 5 ug/mL, antibody 0.01 ug/mL
[5] = target: soluble KDR Ig4-7 domain (human) (UniProt P35968); assay: ELISA, KDR Ig4-7 coat (1:1 diln.), antibody 0.1 ug/mL
[6] = target: soluble KDR Ig4-7 domain (human) (UniProt P35968); assay: ELISA, KDR Ig4-7 coat (1:1 diln.), antibody 1 ug/mL
KDR (human) = KDR (human) (UniProt P35968); assay: cell-based or functional assay
Chain of KDR (human) (P35968 20-1356): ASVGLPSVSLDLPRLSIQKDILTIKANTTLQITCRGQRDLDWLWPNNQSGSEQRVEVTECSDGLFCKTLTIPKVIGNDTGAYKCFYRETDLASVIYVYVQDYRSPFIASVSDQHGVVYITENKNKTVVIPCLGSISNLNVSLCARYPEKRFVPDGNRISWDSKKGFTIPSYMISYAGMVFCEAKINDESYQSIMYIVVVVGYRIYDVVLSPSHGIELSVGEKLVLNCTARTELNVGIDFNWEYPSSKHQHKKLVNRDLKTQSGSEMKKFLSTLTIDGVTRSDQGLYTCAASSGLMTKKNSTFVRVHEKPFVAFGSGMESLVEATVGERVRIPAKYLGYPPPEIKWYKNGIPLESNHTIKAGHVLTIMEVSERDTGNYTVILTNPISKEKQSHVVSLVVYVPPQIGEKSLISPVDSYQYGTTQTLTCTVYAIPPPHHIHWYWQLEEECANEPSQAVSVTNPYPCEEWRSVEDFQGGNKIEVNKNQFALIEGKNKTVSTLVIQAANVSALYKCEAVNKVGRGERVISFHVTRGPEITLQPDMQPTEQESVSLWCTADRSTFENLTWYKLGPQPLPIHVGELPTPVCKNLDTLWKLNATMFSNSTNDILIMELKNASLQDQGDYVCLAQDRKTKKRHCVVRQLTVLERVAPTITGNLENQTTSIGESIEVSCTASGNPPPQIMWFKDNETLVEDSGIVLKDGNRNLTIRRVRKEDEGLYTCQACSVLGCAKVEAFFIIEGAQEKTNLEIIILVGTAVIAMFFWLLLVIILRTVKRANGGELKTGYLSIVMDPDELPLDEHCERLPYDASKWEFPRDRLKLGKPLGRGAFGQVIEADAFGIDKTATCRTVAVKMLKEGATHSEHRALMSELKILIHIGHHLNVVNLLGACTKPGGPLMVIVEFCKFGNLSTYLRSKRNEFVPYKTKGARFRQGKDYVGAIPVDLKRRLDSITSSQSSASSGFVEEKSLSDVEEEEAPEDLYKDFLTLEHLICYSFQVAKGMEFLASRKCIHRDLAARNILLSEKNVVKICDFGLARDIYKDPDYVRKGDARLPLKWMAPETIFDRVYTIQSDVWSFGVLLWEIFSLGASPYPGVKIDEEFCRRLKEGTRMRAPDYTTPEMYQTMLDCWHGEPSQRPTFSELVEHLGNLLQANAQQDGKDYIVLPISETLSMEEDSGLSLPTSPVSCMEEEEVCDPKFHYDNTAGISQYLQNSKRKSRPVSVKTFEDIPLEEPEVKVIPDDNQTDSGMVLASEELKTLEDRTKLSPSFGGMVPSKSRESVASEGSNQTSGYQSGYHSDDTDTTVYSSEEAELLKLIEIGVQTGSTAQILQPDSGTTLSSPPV

[7] = target: human KDR (VEGFR2) on cells (human) (UniProt P35968); assay: FACS on HUVEC, control at 2 ug/mL
Chain of human KDR (VEGFR2) on cells (human) (P35968 20-1356): as above

Chain of whole KDR-ECD (Cat. # 676490, Calbiochem) (human) (P35968 20-764): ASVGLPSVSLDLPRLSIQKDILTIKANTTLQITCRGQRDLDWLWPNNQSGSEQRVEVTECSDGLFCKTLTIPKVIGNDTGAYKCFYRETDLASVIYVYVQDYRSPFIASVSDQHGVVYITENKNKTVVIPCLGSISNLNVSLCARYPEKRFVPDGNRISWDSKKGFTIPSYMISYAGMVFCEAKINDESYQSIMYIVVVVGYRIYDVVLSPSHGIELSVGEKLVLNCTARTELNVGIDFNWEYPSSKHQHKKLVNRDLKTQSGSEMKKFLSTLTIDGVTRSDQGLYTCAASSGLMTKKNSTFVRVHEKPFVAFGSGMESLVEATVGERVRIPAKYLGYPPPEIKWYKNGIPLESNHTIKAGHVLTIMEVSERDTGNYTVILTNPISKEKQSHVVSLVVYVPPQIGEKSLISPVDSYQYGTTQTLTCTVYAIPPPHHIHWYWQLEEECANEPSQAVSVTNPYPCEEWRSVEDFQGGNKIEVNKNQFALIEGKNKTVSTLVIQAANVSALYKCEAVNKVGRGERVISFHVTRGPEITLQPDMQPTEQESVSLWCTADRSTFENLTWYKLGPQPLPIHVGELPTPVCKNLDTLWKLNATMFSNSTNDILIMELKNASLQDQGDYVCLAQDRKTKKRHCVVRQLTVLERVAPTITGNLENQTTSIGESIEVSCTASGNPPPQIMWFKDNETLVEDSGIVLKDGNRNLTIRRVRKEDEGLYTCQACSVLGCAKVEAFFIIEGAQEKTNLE
Chain of soluble KDR Ig4-7 domain (human) (P35968 328-764): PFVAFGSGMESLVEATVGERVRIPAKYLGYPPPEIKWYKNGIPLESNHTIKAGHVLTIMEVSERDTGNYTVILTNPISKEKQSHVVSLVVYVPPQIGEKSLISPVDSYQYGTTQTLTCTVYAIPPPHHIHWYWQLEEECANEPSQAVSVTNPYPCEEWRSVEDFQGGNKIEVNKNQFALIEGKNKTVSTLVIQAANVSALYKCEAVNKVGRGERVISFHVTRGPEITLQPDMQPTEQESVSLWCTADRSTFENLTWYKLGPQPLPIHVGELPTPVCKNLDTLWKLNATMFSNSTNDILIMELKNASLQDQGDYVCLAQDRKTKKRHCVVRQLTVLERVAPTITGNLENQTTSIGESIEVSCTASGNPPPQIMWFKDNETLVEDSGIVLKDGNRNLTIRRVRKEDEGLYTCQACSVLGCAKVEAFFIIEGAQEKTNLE

ELISA reading [1] | ELISA reading [2] | ELISA reading [3] | ELISA reading [4] | ELISA reading [5] | ELISA reading [6] | % of Max VEGF KDR pTyr Activity (at 133 nM antibody concentration), Average (KDR (human)) | % of Max VEGF KDR pTyr Activity (at 133 nM antibody concentration), N = 1 (KDR (human)) | % of Max VEGF KDR pTyr Activity (at 133 nM antibody concentration), N = 2 (KDR (human)) | FACS Geometric Mean [7] | Substance
0.087 | 0.121 | 0.079 | 0.082 | 0.097 | 0.139 | – | – | – | – | IgG1 (Control) (Sigma-Aldrich, Cat. #15154) (antibody)
– | – | – | – | – | – | 8% | 6% | 10% | – | IgG4 (antibody)
0.078 | 0.106 | 0.075 | 0.077 | 0.078 | 0.181 | – | – | – | – | IgG4 (Control) (Sigma-Aldrich, Cat. #14639) (antibody)
– | – | – | – | – | – | 9% | 6% | 12% | – | IgG2 (antibody)
– | – | – | – | – | – | – | – | – | 3.28 | goat isotype control (antibody)
